Here are results for two molecules from publication PMC9620470 (Cell chemical biology, 2022).

The target of this assay is EPHA4-Flag protein purified from transfected 293FT cells (human, UniProt P54764 20-986). In words: pull-down.
EPHA4-Flag protein purified from transfected 293FT cells, sequence (P54764 20-986): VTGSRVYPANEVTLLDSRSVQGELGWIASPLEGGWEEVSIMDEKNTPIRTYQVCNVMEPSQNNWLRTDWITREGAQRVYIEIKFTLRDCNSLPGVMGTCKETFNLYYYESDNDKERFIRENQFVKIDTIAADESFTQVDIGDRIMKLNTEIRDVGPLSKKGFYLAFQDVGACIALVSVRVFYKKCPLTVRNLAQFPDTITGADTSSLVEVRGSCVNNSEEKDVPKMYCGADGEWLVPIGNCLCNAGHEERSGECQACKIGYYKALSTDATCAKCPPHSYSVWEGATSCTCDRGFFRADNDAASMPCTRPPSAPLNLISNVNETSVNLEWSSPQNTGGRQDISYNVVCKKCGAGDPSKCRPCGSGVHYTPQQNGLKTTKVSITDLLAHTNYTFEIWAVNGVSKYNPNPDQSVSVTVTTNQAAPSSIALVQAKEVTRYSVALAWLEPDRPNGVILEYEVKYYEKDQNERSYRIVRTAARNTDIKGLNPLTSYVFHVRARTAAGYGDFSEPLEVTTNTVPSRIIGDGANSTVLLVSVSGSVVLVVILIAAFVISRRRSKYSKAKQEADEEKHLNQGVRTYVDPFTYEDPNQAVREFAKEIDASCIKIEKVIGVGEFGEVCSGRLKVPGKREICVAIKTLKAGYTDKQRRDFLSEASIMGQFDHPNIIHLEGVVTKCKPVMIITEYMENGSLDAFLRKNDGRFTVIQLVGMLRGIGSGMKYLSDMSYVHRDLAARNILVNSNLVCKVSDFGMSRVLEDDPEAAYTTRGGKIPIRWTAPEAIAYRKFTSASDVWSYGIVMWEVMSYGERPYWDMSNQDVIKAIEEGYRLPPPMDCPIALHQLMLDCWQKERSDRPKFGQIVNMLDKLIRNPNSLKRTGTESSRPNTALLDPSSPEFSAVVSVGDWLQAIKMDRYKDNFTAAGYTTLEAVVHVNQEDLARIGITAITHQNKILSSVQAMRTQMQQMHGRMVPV

B1: GST-GMPR, bacterially purified (enzyme, human)
chain: MPRIDADLKLDFKDVLLRPKRSSLKSRAEVDLERTFTFRNSKQTYSGIPIIVANMDTVGTFEMAAVMSQHSMFTAIHKHYSLDDWKLFATNHPECLQNVAVSSGSGQNDLEKMTSILEAVPQVKFICLDVANGYSEHFVEFVKLVRAKFPEHTIMAGNVVTGEMVEELILSGADIIKVGVGPGSVCTTRTKTGVGYPQLSAVIECADSAHGLKGHIISDGGCTCPGDVAKAFGAGADFVMLGGMFSGHTECAGEVFERNGRKLKLFYGMSSDTAMNKHAGGVAEYRASEGKTVEVPYKGDVENTILDILGGLRSTCTYVGAAKLKELSRRATFIRVTQQHNTVFS
Turning to B1, the binding result is recorded as “binds”.

B2: GST-GMPR^Y267F, bacterially purified (enzyme, human)
chain: MPRIDADLKLDFKDVLLRPKRSSLKSRAEVDLERTFTFRNSKQTYSGIPIIVANMDTVGTFEMAAVMSQHSMFTAIHKHYSLDDWKLFATNHPECLQNVAVSSGSGQNDLEKMTSILEAVPQVKFICLDVANGYSEHFVEFVKLVRAKFPEHTIMAGNVVTGEMVEELILSGADIIKVGVGPGSVCTTRTKTGVGYPQLSAVIECADSAHGLKGHIISDGGCTCPGDVAKAFGAGADFVMLGGMFSGHTECAGEVFERNGRKLKLFFGMSSDTAMNKHAGGVAEYRASEGKTVEVPYKGDVENTILDILGGLRSTCTYVGAAKLKELSRRATFIRVTQQHNTVFS
As to B2, the binding result is given as “binds”.
